Reference: patent publication US20130281677A1 (CEPHALON AUSTRALIA, published 2013)
Substitutions are numbered along the chain they refer to. Numbers in names are those of the source.

B1: hu39D10 (humanized 39D10, anti-IL-5 antibody) with native human IgG4 Fc / kappa (antibody)
heavy: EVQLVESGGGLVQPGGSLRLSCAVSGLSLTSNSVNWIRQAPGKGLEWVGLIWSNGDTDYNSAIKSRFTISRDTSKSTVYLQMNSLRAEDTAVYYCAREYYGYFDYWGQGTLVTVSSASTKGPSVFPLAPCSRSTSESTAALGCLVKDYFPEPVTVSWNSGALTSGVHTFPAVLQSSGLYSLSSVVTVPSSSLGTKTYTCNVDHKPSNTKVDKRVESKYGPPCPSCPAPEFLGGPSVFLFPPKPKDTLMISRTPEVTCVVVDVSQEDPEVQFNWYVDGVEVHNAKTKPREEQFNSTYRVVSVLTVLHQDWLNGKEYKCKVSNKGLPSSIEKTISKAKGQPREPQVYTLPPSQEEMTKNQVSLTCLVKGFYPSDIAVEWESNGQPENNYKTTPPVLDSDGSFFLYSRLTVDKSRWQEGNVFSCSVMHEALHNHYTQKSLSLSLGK
light: DIQMTQSPSSLSASVGDRVTITCLASEGISSYLAWYQQKPGKAPKLLIYGANSLQTGVPSRFSGSGSATDYTLTISSLQPEDFATYYCQQSYKFPNTFGQGTKVEVKRTVAAPSVFIFPPSDEQLKSGTASVVCLLNNFYPREAKVQWKVDNALQSGNSQESVTEQDSKDSTYSLSSTLTLSKADYEKHKVYACEVTHQGLSSPVTKSFNRGEC
notes: Full IgG4/kappa expressed in HEK293 6E cells; also called CTIL-5-10gH/-gL6; hu39D10 with unmodified Fc; not shown: human IgG4 heavy chain constant region, native (cloned from Quickclone cDNA library)
B2: hu39D10 with the YTE mutations and the S228P hinge mutation (YTE+S228P) in IgG4 (antibody)
heavy: EVQLVESGGGLVQPGGSLRLSCAVSGLSLTSNSVNWIRQAPGKGLEWVGLIWSNGDTDYNSAIKSRFTISRDTSKSTVYLQMNSLRAEDTAVYYCAREYYGYFDYWGQGTLVTVSSASTKGPSVFPLAPCSRSTSESTAALGCLVKDYFPEPVTVSWNSGALTSGVHTFPAVLQSSGLYSLSSVVTVPSSSLGTKTYTCNVDHKPSNTKVDKRVESKYGPPCPPCPAPEFLGGPSVFLFPPKPKDTLYITREPEVTCVVVDVSQEDPEVQFNWYVDGVEVHNAKTKPREEQFNSTYRVVSVLTVLHQDWLNGKEYKCKVSNKGLPSSIEKTISKAKGQPREPQVYTLPPSQEEMTKNQVSLTCLVKGFYPSDIAVEWESNGQPENNYKTTPPVLDSDGSFFLYSRLTVDKSRWQEGNVFSCSVMHEALHNHYTQKSLSLSLGK
light: B1 light
notes: also called hu39D10 with the 4 amino acid substitutions; S228P+YTE variant
B3: hu39D10 with the YTE mutations (M252Y, S254T, T256E) in the IgG4 Fc (antibody, name in EU numbering)
heavy: B2 heavy with P224S
light: B1 light
notes: domain: IgG4 heavy chain constant region; Substitution positions are EU numbers, not positions on the UniProt entry; also called hu39D10 YTE variant

Columns and labels:
[1] = target: T1, human FcRn extracellular domain / beta2 microglobulin complex (human, UniProt P55899 24-290; P61769 21-119); assay: ELISA, pH 6.0; FcRn/β2m complex captured by anti-β2m antibody, antibody titrated, anti-human kappa HRP detection
T1 construct: range 24-290;range 21-119; Both chains were co-expressed in HEK293 6E cells and purified on IgG-Sepharose; In the ELISA the complex was captured by a coated anti-β2 microglobulin antibody at pH 6.0; also called FcRn/β2 microglobulin complex
Description: (§1) Maxisorp 96-well plates (Thermo Fisher Scientific, Rochester, N.Y.) were coated with 5 ug/ml anti-β₂ microglobulin monoclonal antibody. Wells were then washed with PBS and treated with Superblock blocking solution (Thermo Fisher Scientific, Rockford, Ill.). Then, the FcRn/β₂ microglobulin complex was diluted to 5 ug/ml in SPBS6T (50 mM sodium phosphate buffer pH 6.0, 150 mM NaCl, 0.05% Tween-20) and added to allow for capture by the coated anti-β₂ microglobulin antibody for 60 min at room temperature. Wells were then washed by SPBS6T and then exposed to hu39D10 or its the variants in SPBS6T and incubated for 60 min at room temperature. The hu39D10/FcRn complex formed by the incubation was probed with an F(ab′)2 fragment of an anti-human kappa HRP conjugate (SourthernBiotechnology, Birmingham, Ala.; 1/5000 dilution in SPBS6T) for 30 min at room temperature. After washing with SPBS6T, 100 ul of TMB (Sigma) was loaded into each well for signal detection. […] The affinity of the IgG variants to FcRn was calculated and plotted using Prism software by GraphPad Software (La Jolla, Calif.).

[2] = target: T1, human FcRn extracellular domain / beta2 …; assay: ELISA, pH 6.0; ratio of EC50 values against hu39D10 with native IgG4 Fc
Description: as §1

T1 sequence (P55899 24-290 limits assumed, form in doubt, chain 1 of 2): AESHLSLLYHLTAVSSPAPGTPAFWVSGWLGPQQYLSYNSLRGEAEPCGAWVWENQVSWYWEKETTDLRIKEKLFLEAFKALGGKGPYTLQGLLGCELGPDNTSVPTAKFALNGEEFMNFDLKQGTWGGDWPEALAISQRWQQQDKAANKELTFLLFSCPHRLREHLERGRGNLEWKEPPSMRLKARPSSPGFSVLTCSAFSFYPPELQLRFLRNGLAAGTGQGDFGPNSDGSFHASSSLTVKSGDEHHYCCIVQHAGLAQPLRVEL
T1 sequence (P61769 21-119 limits assumed, form in doubt, chain 2 of 2): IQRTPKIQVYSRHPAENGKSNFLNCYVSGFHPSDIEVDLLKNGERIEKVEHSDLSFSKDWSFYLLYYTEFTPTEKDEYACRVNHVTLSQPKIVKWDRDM

| Binder | EC50 [1] [nM] | fold increase in affinity for human FcRn against hu39D10 [2] [fold] |
| --- | --- | --- |
| B1 | 3.8 |  |
| B2 | 0.81 |  |
| B3 | 0.81 | 4.7 |
